T1: recombinant human TGFβ2 (R&D Systems, Cat #302-B2-010/CF) (human, UniProt P61812 303-414)
T1 construct: Bought protein
T1 sequence (looked up): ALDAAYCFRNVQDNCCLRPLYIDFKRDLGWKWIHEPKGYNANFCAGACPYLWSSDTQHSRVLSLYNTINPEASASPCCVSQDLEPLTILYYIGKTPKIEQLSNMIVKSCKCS

T2: recombinant human TGFβ3 protein (R&D Systems, Cat #8420-B3-025/CF) (human, UniProt P10600 301-412)
T2 construct: Bought protein
T2 sequence (looked up): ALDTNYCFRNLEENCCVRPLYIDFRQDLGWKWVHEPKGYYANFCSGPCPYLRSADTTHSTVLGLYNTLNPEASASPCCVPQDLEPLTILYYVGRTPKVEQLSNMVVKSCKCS

T3: recombinant human B7-H3 protein (R&D Systems, Cat #1027-B3-100) (human, UniProt Q5ZPR3-2 29-245)
T3 construct: Bought protein; also called CD276
T3 sequence (looked up): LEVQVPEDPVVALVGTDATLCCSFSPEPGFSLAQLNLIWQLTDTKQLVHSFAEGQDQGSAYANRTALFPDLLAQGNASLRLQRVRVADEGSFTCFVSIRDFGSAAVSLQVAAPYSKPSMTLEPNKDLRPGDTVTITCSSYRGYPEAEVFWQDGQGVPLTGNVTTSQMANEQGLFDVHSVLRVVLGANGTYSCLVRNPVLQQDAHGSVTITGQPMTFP


Columns and labels:
[1] = molecular target: T1, recombinant human TGFβ2 (R&D Systems, …); assay: ELISA; plate-coated bispecific, TGFβ2 titrated (EC50 is a TGFβ2 concentration), biotinylated anti-TGFβ2 detection
Procedure: After coating a plate with 1×PBS solution containing #1 to #9 bispecific molecules (30 μL, 0.5 μM), the plate was covered and cultured overnight at 2 to 8° C. Thereafter, the wells were washed once with 150 μL PBS per well, and blocked with 120 µL of blocking buffer (1×PBS-T w/3% BSA) per well for 2 hours at room temperature. The blocking buffer was discarded, recombinant human TGFβ2 (R&D Systems, Cat #302-B2-010/CF) was 4-fold diluted in serial from 30 nM. After adding each diluted solution to the wells by 30 μL per well, it was reacted at room temperature for 1 hour. Then, the wells were washed three times with 150 μL of washing buffer (1×PBS-T) per well, followed by diluting Biotinylated-TGF-beta2 antibody combined with the recombinant human TGFβ2 protein in the blocking buffer. After adding the diluted solution to the wells by 30 μL per well, it was reacted at room temperature for 1 hour. Further, after washing the wells three times with 150 μL of washing buffer (1×PBS-T) per well, 30 μL of streptavidin-HRP diluted in the blocking buffer was added to each well, and reacted at room temperature for 1 hour. After washing the wells three times with 150 μL of washing buffer (1×PBS-T) per well, HRP reaction was developed using TMB, and the reaction was stopped with 30 μL 1 N HCl. Then, the optical density (OD) was measured at 450 nm.

[2] = molecular target: T2, recombinant human TGFβ3 protein (R&D …); assay: ELISA; plate-coated TGFβ3, bispecific titrated, anti-human IgG1 Fc-HRP
Procedure: (§1) After coating a plate with each of recombinant human TGFβ1 protein (R&D Systems, Cat #7754-BH-025/CF) and TGFβ3 protein (R&D Systems, Cat #8420-B3-025/CF) (30 μL, 0.5 μg/ml) in 1×PBS solution, the plate was covered and cultured overnight at 2 to 8° C. Thereafter, the wells were washed once with 150 μL PBS per well, and blocked with 120 μL of blocking buffer (1×PBS-T w/3% BSA) per well for 2 hours at room temperature. The blocking buffer was discarded and 30 μL solution containing #1 to #9 bispecific molecules (5-fold serial dilution) was added, followed by reaction for 1 hour at room temperature. Then, the wells were washed three times with 150 μL PBS per well. 30 μL of HRP conjugated anti-Human IgG1 Fc Ab diluted in the blocking buffer was added to each well, and reacted at room temperature for 1 hour. Thereafter, the wells were washed three times with 150 μL of washing buffer per well, the HRP reaction was developed using TMB, and the reaction was stopped with 30 μL 1 N HCl. Then, the optical density (OD) was measured at 450 nm.

[3] = molecular target: T3, recombinant human B7-H3 protein (R&D …); assay: ELISA; plate-coated recombinant human B7-H3, bispecific titrated
Procedure: After coating a plate with recombinant human B7-H3 protein (R&D Systems, Cat #1027-B3-100) (30 μL, 20 nM) in 1×PBS solution, the plate was covered and coated overnight at 2 to 8° C. Thereafter, the wells were washed once with 150 μL PBS per well, and blocked with 120 μL of blocking buffer (1×PBS-T w/3% BSA) per well for 2 hours at room temperature. The blocking buffer was discarded and 30 μL of antibody solution was added using a series of dilution solutions (using the blocking buffer, #1 to #9 bispecific molecules were diluted in serial by two times; 2-fold serial dilution), and reacted at room temperature for 1 hour, then the wells were washed three times with 150 μL of wash buffer per well. 30 μL of HRP conjugate of anti-HA Tag antibody diluted in the blocking buffer was added to each well, and reacted at room temperature for 1 hour. Thereafter, the wells were washed three times with 150 μL of washing buffer per well, the HRP reaction was developed using TMB, the reaction was stopped with 1 N HCl, and then the optical density (OD) was measured at 450 nm.
It was confirmed that #1 to #9 bispecific molecules specifically bind to B7-H3 with excellent binding force.

[4] = molecular target: T4, recombinant human TGFβ1 protein (R&D Systems, Cat #7754-BH-025/CF) (human, UniProt P01137 279-390); assay: ELISA; plate-coated TGFβ1, bispecific titrated, anti-human IgG1 Fc-HRP
T4 construct: Bought protein
Procedure: as §1

[5] = molecular target: T4, recombinant human TGFβ1 protein (R&D …); assay: bridging ELISA; plate-coated TGFβ1, bispecific titrated, detected with His-tag human B7-H3 and anti-His-HRP
Procedure: After coating a plate with the recombinant human TGFβ1 protein (30 μL, 0.5 μg/ml) in 1×PBS solution, the plate was covered and cultured overnight at 2 to 8° C. Thereafter, the wells were washed once with 150 μL PBS per well, and blocked with 120 µL of blocking buffer (1×PBS-T w/3% BSA) per well for 2 hours at room temperature. The blocking buffer was discarded and 4-fold diluted antibody solution was added by 30 μL, followed by reaction for 2 hour at room temperature. Then, the wells were washed three times with 150 μL of washing buffer (1×PBS-T) per well.
Thereafter, 30 μL of His-tag human B7-H3 protein diluted in the blocking buffer was added to each well, and cultured at room temperature for 2 hours. Thereafter, the wells were washed three times with 150 μL of washing buffer per well. 30 μL of HRP conjugate of anti-His tag antibody diluted in the blocking buffer was added to each well, and reacted at room temperature for 1 hour. Thereafter, the wells were washed three times with 150 μL of washing buffer per well, the HRP reaction was developed using TMB, and the reaction was stopped with 30 μL 1 N HCl. Then, the optical density (OD) was measured at 450 nm.

[6] = molecular target: T4, recombinant human TGFβ1 protein (R&D …); assay: bridging ELISA on plate-coated TGFβ1, detected with His-tag human B7-H3; paragraph 158 says the mono antibodies are not bound to TGFβ1

T4 sequence (P01137 279-390 limits assumed): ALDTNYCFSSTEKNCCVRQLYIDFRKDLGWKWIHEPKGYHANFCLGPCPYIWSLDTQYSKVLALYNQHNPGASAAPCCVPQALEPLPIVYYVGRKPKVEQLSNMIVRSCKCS

EC50 [1] [nM] | EC50 [2] [nM] | EC50 [3] [nM] | EC50 [4] [nM] | EC50 [5] [nM] | binding result [6] | Binder
0.143 | 3.14 | 10.2 | 3.62 | 3.74 |  | #5 bispecific molecule (bispecific antibody, human IgG1, N297A, also called #5 (TRAP); B7-H3/TGFβ bispecific molecule #5) heavy: not shown VL: QSVLTQPPSASGTPGQRVTISCSGSSSNIGSNYVYWYQQLPGTAPKLLIYRNNQRPSGVPDRFSGSKSGTSASLAISGLRSEDEADYYCGTWDSSLSGVVFGGGTKLTVL
0.12 | 8.09 | 12.2 | 24.8 | 3.15 |  | #7 bispecific molecule (bispecific antibody, human IgG1, N297A, also called #7 (TRAP); B7-H3/TGFβ bispecific molecule #7) heavy: not shown VL: QSVLTQPPSASGTPGQRVTISCTGTSSDIGRYNYVSWYQQLPGTAPKLLIYRNTQRPSGVPDRFSGSKSGTSASLAISGLRSEDEADYYCGTWDSSLNAYVFGGGTKLTVL
0.14 | 7.92 | 3.19 | 5.83 | 1.43 |  | #2 bispecific molecule (bispecific antibody, human IgG1, N297A, also called #2 (TRAP); B7-H3/TGFβ bispecific molecule #2) heavy: not shown VL: EIVLTQSPGTLSLSPGERATLSCHASQGISNYVAWYQQKPGQAPRLLIYDASNRATGIPDRFSGSGSGTDFTLTISHLEPEDFAVYYCQQSYSTLLTFGQGTKVEIK
 |  |  |  |  | no binding | #2 (mono) B7-H3 mono antibody free of TGFβ binding portion (antibody, human IgG1, N297A, V domains shown) VH: EVQLLESGGGLVQPGGSLRLSCAASGFTFSAYYMIWVRQAPGKGLEWVSITNPSGGVTSYAQKFQGRFTISRDNSKNTLYLQMNSLRAEDTAVYYCARVGGRGFDIWGQGTLVTVSS VL: EIVLTQSPGTLSLSPGERATLSCHASQGISNYVAWYQQKPGQAPRLLIYDASNRATGIPDRFSGSGSGTDFTLTISHLEPEDFAVYYCQQSYSTLLTFGQGTKVEIK
2.08 | 2.94 | 1.72 | 3.41 | 1.98 |  | #8 bispecific molecule (bispecific antibody, human IgG1, N297A, also called #8 (TRAP); B7-H3/TGFβ bispecific molecule #8) heavy: not shown VL: QSVLTQPPSASGTPGQRVTISCSGSNIGNNYVSWYQQLPGTAPKLLIYQDSKRPSGVPDRFSGSKSGTSASLAISGLRSEDEADYYCLVWDRSSDHFVFGGGTKLTVL
0.076 | 3.8 | 5.94 | 4.39 | 2.11 |  | #3 bispecific molecule (bispecific antibody, human IgG1, N297A, also called #3 (TRAP); B7-H3/TGFβ bispecific molecule #3) heavy: not shown VL: EIVLTQSPGTLSLSPGERATLSCRVSQSISSYLNWYQQKPGQAPRLLIYDASHRATGIPDRFSGSGSGTDFTLTISRLEPEDFAVYYCQQYYAPSVTFGQGTKVEIK
 |  |  |  |  | no binding | #3 (mono) B7-H3 mono antibody free of TGFβ binding portion (antibody, human IgG1, N297A, V domains shown) VH: EVQLLESGGGLVQPGGSLRLSCAASGFTFSTYYMTWVRQAPGKGLEWVSIINPRGGSTSYAEKFQGRFTISRDNSKNTLYLQMNSLRAEDTAVYYCARWNLGMDVWGQGTLVTVSS VL: EIVLTQSPGTLSLSPGERATLSCRVSQSISSYLNWYQQKPGQAPRLLIYDASHRATGIPDRFSGSGSGTDFTLTISRLEPEDFAVYYCQQYYAPSVTFGQGTKVEIK
0.13 | 3.32 | 29.3 | 2.02 | 1.96 |  | #4 bispecific molecule (bispecific antibody, human IgG1, N297A, also called #4 (TRAP); B7-H3/TGFβ bispecific molecule #4) heavy: not shown VL: QSVLTQPPSASGTPGQRVTISCSGSTSNIGSNTVNWYQQLPGTAPKLLIYGKNIRPNGVPDRFSGSKSGTSASLAISGLHSEDEADYYCQSYDSSLSGWVFGGGTKLTVL
 |  |  |  |  | no binding | #4 (mono) B7-H3 mono antibody free of TGFβ binding portion (antibody, human IgG1, N297A, V domains shown) VH: EVQLLESGGGLVQPGGSLRLSCAASGFTFSSYGMHWVRQAPGKGLEWVSAISGSGTSIYYANSVKSRFTISRDNSKNTLYLQMNSLRAEDTAVYYCARGAGWFDYWGQGTLVTVSS VL: QSVLTQPPSASGTPGQRVTISCSGSTSNIGSNTVNWYQQLPGTAPKLLIYGKNIRPNGVPDRFSGSKSGTSASLAISGLHSEDEADYYCQSYDSSLSGWVFGGGTKLTVL
0.136 | 4.72 | 27.5 | 3.84 | 3.83 |  | #1 bispecific molecule (bispecific antibody, human IgG1, N297A, also called #1 (TRAP); B7-H3/TGFβ bispecific molecule #1) heavy: not shown VL: EIVLTQSPGTLSLSPGERATLSCRASQGIGNYLGWYQQKPGQAPRLLIYTASSLQSGIPDRFSGSGSGTDFTLTISRLEPEDFAVYYCQQGYSTPSWTFGQGTKVEIK
 |  |  |  |  | no binding | #1 (mono) B7-H3 mono antibody free of TGFβ binding portion (antibody, human IgG1, N297A, V domains shown) VH: EVQLLESGGGLVQPGGSLRLSCAASGFTFSSYAMSWVRQAPGKGLEWVSTITGSGGSTYYADSVKGRFTISRDNSKNTLYLQMNSLRAEDTAVYYCARYKSGAFDIWGQGTLVTVSS VL: EIVLTQSPGTLSLSPGERATLSCRASQGIGNYLGWYQQKPGQAPRLLIYTASSLQSGIPDRFSGSGSGTDFTLTISRLEPEDFAVYYCQQGYSTPSWTFGQGTKVEIK
0.083 | 4.56 | 1.34 | 9.08 | 2.21 |  | #6 bispecific molecule (bispecific antibody, human IgG1, N297A, also called #6 (TRAP); B7-H3/TGFβ bispecific molecule #6) heavy: not shown VL: QSVLTQPPSASGTPGQRVTISCGGNNIGSKSVHWYQQLPGTAPKLLIYDNNKRPSGVPNRFSGSKSGTSASLAISGLRSEDEADYYCAAWDDSLNVPVFGGGTKLTVL
0.143 | 5.98 | 6.11 | 3.94 | 1.56 |  | #9 bispecific molecule (bispecific antibody, human IgG1, N297A, also called #9 (TRAP); B7-H3/TGFβ bispecific molecule #9) heavy: not shown VL: QSVLTQPPSASGTPGQRVTISCSDNNIGSKSVHWYQQLPGTAPKLLIYDNNKRPSGVPDRFSGSKSGTSASLAISGLRSEDEADYYCGTWDDSLSGPVFGGGTKLTVL
